Target: ATP binding cassette protein E1 (ABCE1), endogenous in 293T/17 cells (human (endogenous in 293T/17)) (UniProt P61221)
Test: proximity ligation

Substance: FIV Gag, wild type, expressed from the FIV pro- env- provirus (natural protein)
- Gag-ABCE1 PLA spots per cell (PLA spots per cell): 34.9
